# Experimental data taken from patent US20110160440A1, “Cab Molecules” (GENENCOR INTERNATIONAL, INC., priority 2003, published 2011).
# Changes are numbered by the printed parent chain.
# B1: CAB1.4 (protein)
# chain: QVQLQQSGAELVKSGGSVKLSCTASGFNIKDSYMHWVRQGPEQGLEWIGWIDPENGDTEYAPKFQGKATFTTDTSSNTAYLQLSSLTSEDTAVYYCNEGTPTGPYYFDYWGQGTTVTVSSGGGGSGGGGSGGGGSENVLTQSPAIVSASPGEKVTITCSASSSVSYMHWFQQKPGTSPKLVIYDTSNLASGVPARFSGSGSGTSYSLTISRMEAEDAATYYCQQRDSYPLTFGAGTKLELKRAATPVSEKQLAEVVANTITPLMKAQSVPGMAVAVIYQGKPHYYTFGKADIAANKPVTPQTLFELGSISKTFTGVLGGDAIARGEISLDDAVTRYWPQLTGKQWQGIRMLDLATYTAGGLPLQVPDEVTDNASLLRFYQNWQPQWKPGTTRLYANASIGLFGALAVKPSGMPYEQAMTTRVLKPLKLDHTWINVPKAEEAHYAWGYRDGKAVRVSPGMLDAQAYGVKTNVQDMANWVMANMAPENVADASLKQGIALAQSRYWRIGSMYQGLGWEMLNWPVEANTVVETSFGNVALAPLPVAEVNPPAPPVKASWVHKTGSTGGFGSYVAFIPEKQIGIVMLANTSYPNPARVEAAYHILEALQ
# B2: CAB1.7: best variant of library SW155 from SW149.5; SEQ ID NO:9 (protein)
# chain: B1 chain with T100L, T102L, P104A, Y105I, F107N, S163A, S165Y, Y166A, K241D
# modifications: CAB1.7 protein variant
# B3: SW149.5 (protein)
# chain: B1 chain with T100L, T102L, P104A, Y105I, F107N
# Tests used:
# [1] = target: T1, CEA (carcinoembryonic antigen) (Homo sapiens, UniProt P06731); experiment: CEA-binding assay on CEA-coated plates, bound BLA activity read with nitrocefin; settings: for binding to CEA / affinity in library screening: relative to parent clone
# T1 construct: purchased Biodesign Intl., Saco, Me
# T1 sequence (P06731 35-676): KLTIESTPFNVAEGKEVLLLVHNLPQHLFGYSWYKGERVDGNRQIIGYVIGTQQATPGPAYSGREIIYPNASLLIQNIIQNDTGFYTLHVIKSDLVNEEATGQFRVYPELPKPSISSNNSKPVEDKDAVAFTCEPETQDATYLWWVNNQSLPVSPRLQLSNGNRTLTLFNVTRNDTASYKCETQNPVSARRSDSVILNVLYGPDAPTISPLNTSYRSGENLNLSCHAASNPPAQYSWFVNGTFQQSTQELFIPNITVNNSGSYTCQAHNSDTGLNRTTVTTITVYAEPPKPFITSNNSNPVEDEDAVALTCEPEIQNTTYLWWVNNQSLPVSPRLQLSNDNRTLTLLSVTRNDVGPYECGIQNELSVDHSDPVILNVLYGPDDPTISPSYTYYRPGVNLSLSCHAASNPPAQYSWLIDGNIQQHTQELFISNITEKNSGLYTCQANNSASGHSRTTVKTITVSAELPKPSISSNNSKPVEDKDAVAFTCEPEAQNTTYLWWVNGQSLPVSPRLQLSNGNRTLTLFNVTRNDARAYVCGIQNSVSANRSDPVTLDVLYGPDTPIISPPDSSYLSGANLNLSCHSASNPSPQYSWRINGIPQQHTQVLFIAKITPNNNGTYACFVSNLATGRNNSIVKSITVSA
# Description: (§1) Binding to CEA (carcinoembryonic antigen, Biodesign Intl., Saco, Me.) was measured using the following procedure: 96-well plates were coated with 100 ul per well of 5 ug/ml of CEA in 50 mM carbonate buffer pH 9.6 overnight. The plates were washed with PBST and blocked for 1-2 hours with 300 ul of casein (Pierce, Rockford, Ill.). 100 ul of sample from the production plate diluted 100-1000 fold was added to the CEA-coated plate and the plates were incubated for 2 h at room temperature. Subsequently, the plates were washed four times with PBST and 200 ul nitrocefin assay buffer was added, and the BLA activity was measured as described above.
# as §1, with “Biodesign Intl., Saco. Me.) was” for “Biodesign Intl., Saco, Me.) was”, “Ill.). 100 n1 of sample” for “Ill.). 100 ul of sample”, “to the CEA coated plate and” for “to the CEA-coated plate and”, “described above. CEA binding was measured in 50 mM phosphate buffer pH 6.5 and in a separate experiment in 50 mM phosphate buffer pH 7.4.” for “described above.”
# Winners were confirmed by culturing them in 5 ml of LB medium containing 5 mg/l chloramphenicol and 0.1 mg/l cefotaxime (Sigma) for 2 days at 37 C. Subsequently, the cultures were centrifuged and the pellet was suspended in 375 ul of BPER reagent to release the fusion protein. BLA activity was determined as above. One unit of activity was defined as the amount of BLA that leads to an absorbance increase of one mOD per minute. The samples were diluted based on their total content of BLA activity and the CEA-binding assay was performed as described above but adding various sample dilutions to each well.
# In order to compare the target-binding properties of various CAB1 variants, we grew 5 ml cultures of TOP10F′ containing the corresponding expression plasmids, as provided above for 3 days at 25 C in LB medium containing 5 mg/l chloramphenicol. The cultures were centrifuged, and the resulting supernatant was discarded. The cell pellets were resuspended in 500 μL of B-PER reagent. This was incubated for 30 minutes. Lactamase concentration in each sample was determined using nitrocephin as substrate, as provided above.
# Binding of the samples to microtiter plates coated with CEA was studied in 50 mM phosphate buffer at pH 6.5 and pH 7.4, as provided above.
# LS174T cells = experiment: Binding of CAB variants to fixed LS174T cells; design: species or system human
# Description: In a similar experiment, binding of variants to LS174T cells was measured. LS174T cells were inoculated in 96 well polystyrene plate at 1×10^5 cells/well in a medium containing 70% DMEM, 30% F12, non-essential amino acids, L-Glut, and Sodium Pyruvate (all from Mediatech). The plate was incubated at 37° C. in a humidified CO2 incubator for 20 hours. The cells were then fixed with 4% formaldehyde in PBS (Polysciences, Warrington, Pa.). The plate was washed with PBST, and 1 mg/ml NaBH4 (Sigma) was added into each well to quench any reactive group. Then the plate was washed again with PBST. Binding of CAB molecules was continued the same way as binding to CEA antigen.
# host proteases = experiment: Screen for improved expression: total BLA activity and CEA-bound BLA activity of CAB1 fusion variants after 3 days of culture (resistance to host proteases); settings: limited randomized library on pSW129.5 template
# Description: Degradation seems to occur mainly in the scFv portion of the CAB1 fusion protein as the cultures contain significant amounts of free BLA after 3 days, which can be detected by Western blotting, or a nitrocefin (Oxoid, N.Y.) activity assay. Thus we applied a screen to library NA05 that was able to detect variants of CAB1-scFv that would resist degradation by host proteases over 3 days of culture at 37 C.
# Library NA05 was plated onto agar plates with LA medium containing 5 mg/l chloramphenicol and 0.1 mg/l cefotaxime (Sigma). 910 colonies were transferred into a total of 10 96-well plates containing 100 ul/well of LA medium containing 5 mg/l chloramphenicol and 0.1 mg/l cefotaxime. […] The production plate was diluted 100-fold in PBST (PBS containing 0.125% Tween-20) and BLA activity was measured by transferring 20 ul diluted lysate into 180 ul of nitrocephin assay buffer (0.1 mg/ml nitrocephin in 50 mM PBS buffer containing 0.125% octylglucopyranoside (Sigma)) and the BLA activity was determined at 490 inn using a Spectramax plus plate reader (Molecular Devices, Sunnyvale, Calif.).
# Binding to CEA (carcinoembryonic antigen, Biodesign Intl., Saco, Me.) was measured using the following procedure: 96-well plates were coated with 100 ul per well of 5 ug/ml of CEA in 50 mM carbonate buffer pH 9.6 overnight. […]
Molecule,binding to CEA ([1]; pH 6.5),binding to CEA ([1]; pH 7.4),binding to CEA / affinity in library screening [1],binding to LS174T cells (LS174T cells; pH 6.5),saturation levels of binding curves on LS174T cells (LS174T cells; pH 6.5 vs pH 7.4),"binding to LS174T cells (LS174T cells; pH 7.4, compared to CAB1.2)",expression (host proteases)
B1,significant binding,very weak binding,–,–,–,–,–
B2,–,–,significantly improved binding to CEA,closely resembles the binding curve of CAB1.2,pH-dependent,significantly weaker binding,–
B3,–,–,improved expression and affinity,–,–,–,improved expression
